Reference: PMC10570122 (iScience, 2023)

Assays:
[1] = target: T1, SARS-CoV-2 WT soluble RBD (residues 319-541) (SARS-CoV-2 Wuhan-Hu-1, UniProt P0DTC2); assay: ELISA; conditions: both partners purified
T1 construct: also called WT RBD; WT D614G RBD gene fragment

[2] = target: T2, SARS-CoV-2 WT stabilized soluble spike protein, hexahistidine-tagged (SARS-CoV-2 Wuhan-Hu-1, UniProt P0DTC2, stabilised); assay: BLI; conditions: both partners purified
T2 construct: also called WT SARS-CoV-2 S

B1: COVA309-22 monoclonal antibody (human IgG1) (antibody, V domains shown)
VH: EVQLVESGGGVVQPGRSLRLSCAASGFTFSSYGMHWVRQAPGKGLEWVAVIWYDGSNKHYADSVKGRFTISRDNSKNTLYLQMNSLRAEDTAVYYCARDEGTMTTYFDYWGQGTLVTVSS
VL: EIVLTQSPSSLSASVGDRVTITCRASQSISSYLNWYQQKPGKAPKLLIYDASSLQSGVPSRFSGSGSGTDFTLTISSLQPEDFATYYCQQSYSTPPWTFGQGTKVEIK
binding result [1]: binds
binding result [2]: binds
